Source: the supplement of paper PMC10126150
± gives the standard deviation of the averaged measurements.

Tested on: ATP
Experiment: switch fluorescence ratio, 500 uM ATP over buffer (Cy3 cluster intensity, sum of 5 cycles each) (fold (ratio)); higher = stronger signal-on switching upon ATP binding; sequences stand for … in TCGTCGGCAGCGTCAGATGTGTATAAGAGACAGTTTTTTTTTTTTTTTTTTTTTTTTT…TC
Settings: aptamer strand: ATP DNA aptamer (quencher-CACCTGGGGGAGTATTGCGGAGGAAGG + anchor), 100 nM annealed; ATP concentration: 500 uM
In short: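 Between each of five buffer/ATP cycles, the flow-cell was stripped with NaOH and re-annealed. Each cycle imaged Cy3-labelled switching-strand clusters, annealed to 100 nM quencher-labelled ATP aptamer on a modified Illumina MiSeq flow-cell, first in selection buffer and then after 15 min with 500 uM ATP at 22 °C. The fluorescence ratio is summed target-cycle over summed buffer-cycle Cy3 intensity per cluster, averaged per switch-domain sequence, with clusters outside 100-1000 RFU excluded.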
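Further: ATP exposure 15 min at 22 °C before imaging.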

| Sequence | switch fluorescence ratio |
| --- | --- |
| GGGGCCGTTG | 0.949 ± 0.012 |
| GGGGCGGGGT | 1.01 ± 0.018 |
| GGGGCGGGTA | 1 ± 0.078 |
| GGGGCGGTGG | 1.036 ± 0.0062 |
| GGGGCGGTTT | 1.01 ± 0.046 |
| GGGGCGTAGG | 1 ± 0.033 |
| GGGGCGTGTG | 1.01 ± 0.014 |
| GGGGCTATAA | 1.11 ± 0.067 |
| GGGGCTATCC | 1.01 ± 0.036 |
| GGGGCTCACG | 0.985 ± 0.029 |
| GGGGCTTATT | 0.975 ± 0.029 |
| GGGGCTTTTG | 0.98 ± 0.04 |
| GGGGGAAAAA | 0.998 ± 0.059 |
| GGGGGAAATA | 0.9815 ± 0.0055 |
| GGGGGAAATG | 0.994 ± 0.029 |
| GGGGGAAATT | 1.03 ± 0.015 |
| GGGGGAACCA | 0.9993 ± 0.0072 |
| GGGGGAATCA | 0.9748 ± 0.0039 |
| GGGGGACTAT | 1.03 ± 0.023 |
| GGGGGACTTT | 1.08 ± 0.08 |
| GGGGGAGAAT | 0.986 ± 0.025 |
| GGGGGAGAGC | 1.03 ± 0.043 |
| GGGGGAGATA | 1 ± 0.025 |
| GGGGGAGATT | 0.977 ± 0.02 |
| GGGGGAGCGA | 0.98 ± 0.059 |

| Sequence | switch fluorescence ratio |
| --- | --- |
| GGGGGAGCTG | 0.978 ± 0.019 |
| GGGGGAGGAG | 0.996 ± 0.013 |
| GGGGGAGTTG | 0.982 ± 0.044 |
| GGGGGATAAG | 1 ± 0.028 |
| GGGGGATAGA | 1.03 ± 0.034 |
| GGGGGATCTC | 1.01 ± 0.021 |
| GGGGGCAAAA | 1.03 ± 0.025 |
| GGGGGCAAAT | 0.9935 ± 0.0068 |
| GGGGGCAACG | 1.03 ± 0.1 |
| GGGGGCAACT | 0.997 ± 0.017 |
| GGGGGCAGCA | 1.01 ± 0.04 |
| GGGGGCATTT | 1 ± 0.031 |
| GGGGGCCATA | 1.14 ± 0.18 |
| GGGGGCCCGA | 0.9925 ± 0.0076 |
| GGGGGCCGCT | 1.02 ± 0.036 |
| GGGGGCCGGT | 1.01 ± 0.058 |
| GGGGGCCGTT | 0.977 ± 0.058 |
| GGGGGCCTTA | 1.01 ± 0.047 |
| GGGGGCGCAT | 0.96 ± 0.066 |
| GGGGGCGCGA | 1.02 ± 0.035 |
| GGGGGCGGAG | 0.992 ± 0.024 |
| GGGGGCGGAT | 0.992 ± 0.024 |
| GGGGGCGTTA | 1.02 ± 0.026 |
| GGGGGCTCTG | 0.999 ± 0.028 |
| GGGGGCTGTT | 1 ± 0.014 |

| Sequence | switch fluorescence ratio |
| --- | --- |
| GGGGGCTTTG | 0.978 ± 0.023 |
| GGGGGGACGT | 1.02 ± 0.035 |
| GGGGGGAGG | 1.1 ± 0.13 |
| GGGGGGAGGA | 1.01 ± 0.056 |
| GGGGGGATAC | 1.7 ± 0.61 |
| GGGGGGATCG | 0.9791 ± 0.008 |
| GGGGGGATCT | 1.004 ± 0.0098 |
| GGGGGGATGC | 1.07 ± 0.13 |
| GGGGGGATGT | 0.993 ± 0.027 |
| GGGGGGCACC | 0.994 ± 0.021 |
| GGGGGGCCGT | 0.957 ± 0.025 |
| GGGGGGCGCT | 0.992 ± 0.018 |
| GGGGGGCGGG | 1.03 ± 0.051 |
| GGGGGGCTGA | 0.982 ± 0.018 |
| GGGGGGGAAT | 1 ± 0.045 |
| GGGGGGGATC | 1.02 ± 0.045 |
| GGGGGGGCGT | 0.996 ± 0.032 |
| GGGGGGGG | 0.994 ± 0.043 |
| GGGGGGGGAC | 1.02 ± 0.071 |
| GGGGGGGGGG | 1.02 ± 0.068 |
| GGGGGGGTC | 0.979 ± 0.019 |
| GGGGGGGTCG | 0.983 ± 0.048 |
| GGGGGGGTG | 1.04 ± 0.013 |
| GGGGGGGTGC | 1.02 ± 0.049 |
| GGGGGGTAAC | 1 ± 0.019 |

| Sequence | switch fluorescence ratio |
| --- | --- |
| GGGGGGTCGT | 1 ± 0.05 |
| GGGGGGTCTT | 1.01 ± 0.025 |
| GGGGGGTT | 0.9904 ± 0.005 |
| GGGGGGTTAC | 1.42 ± 1 |
| GGGGGGTTAG | 0.991 ± 0.029 |
| GGGGGGTTCC | 1.02 ± 0.044 |
| GGGGGTACTG | 0.965 ± 0.028 |
| GGGGGTAGAG | 0.988 ± 0.015 |
| GGGGGTAGGA | 1.02 ± 0.038 |
| GGGGGTAGGT | 0.985 ± 0.036 |
| GGGGGTATCG | 0.967 ± 0.021 |
| GGGGGTCACT | 0.993 ± 0.026 |
| GGGGGTCGAC | 0.996 ± 0.043 |
| GGGGGTCTTA | 0.9974 ± 0.0063 |
| GGGGGTGCTG | 0.993 ± 0.025 |
| GGGGGTGCTT | 1.03 ± 0.056 |
| GGGGGTGTCT | 0.99 ± 0.034 |
| GGGGGTTACC | 0.988 ± 0.02 |
| GGGGGTTCTT | 1.01 ± 0.049 |
| GGGGGTTGAA | 1 ± 0.029 |
| GGGGGTTTCG | 0.999 ± 0.036 |
| GGGGTAAATC | 1.01 ± 0.024 |
| GGGGTAAGAG | 1.019 ± 0.0038 |
| GGGGTAAGTA | 0.986 ± 0.027 |
| GGGGTAAGTT | 0.989 ± 0.035 |

| Sequence | switch fluorescence ratio |
| --- | --- |
| GGGGTACAGG | 1.005 ± 0.0055 |
| GGGGTACGAG | 1.02 ± 0.033 |
| GGGGTAGGCG | 0.959 ± 0.051 |
| GGGGTAGTG | 1.03 ± 0.067 |
| GGGGTATCCA | 1.03 ± 0.03 |
| GGGGTATCTT | 1.04 ± 0.017 |
| GGGGTATGAG | 0.972 ± 0.029 |
| GGGGTATTGC | 1.004 ± 0.0076 |
| GGGGTATTTG | 0.99 ± 0.012 |
| GGGGTCAACG | 0.963 ± 0.035 |
| GGGGTCATTT | 0.979 ± 0.027 |
| GGGGTCCTGG | 0.943 ± 0.022 |
| GGGGTCGGGA | 0.999 ± 0.011 |
| GGGGTCGGGT | 0.99 ± 0.012 |
| GGGGTCGTGT | 0.992 ± 0.023 |
| GGGGTCGTTC | 0.99 ± 0.028 |
| GGGGTGAAAT | 1 ± 0.018 |
| GGGGTGAGCA | 0.976 ± 0.029 |
| GGGGTGAGTG | 1.02 ± 0.045 |
| GGGGTGCCAG | 0.963 ± 0.058 |
| GGGGTGCGTG | 0.984 ± 0.045 |
| GGGGTGCTG | 1.02 ± 0.036 |
| GGGGTGCTTG | 0.988 ± 0.026 |
| GGGGTGGGTA | 0.998 ± 0.028 |
| GGGGTGGTCG | 0.986 ± 0.083 |

| Sequence | switch fluorescence ratio |
| --- | --- |
| GGGGTGTGGT | 0.998 ± 0.038 |
| GGGGTTAACT | 0.975 ± 0.022 |
| GGGGTTAGAA | 0.984 ± 0.0077 |
| GGGGTTCAAA | 0.997 ± 0.016 |
| GGGGTTCATT | 1.01 ± 0.04 |
| GGGGTTCC | 0.998 ± 0.0092 |
| GGGGTTCCTC | 0.9919 ± 0.0096 |
| GGGGTTGACG | 0.964 ± 0.059 |
| GGGGTTGGGT | 1.03 ± 0.026 |
| GGGGTTGGTA | 1.005 ± 0.006 |
| GGGGTTGTAG | 0.993 ± 0.047 |
| GGGGTTGTGA | 1.01 ± 0.022 |
| GGGGTTTACA | 0.989 ± 0.026 |
| GGGGTTTCTT | 0.987 ± 0.048 |
| GGGGTTTGAA | 0.984 ± 0.016 |
| GGGGTTTGTT | 0.992 ± 0.034 |
| GGGGTTTTTG | 0.995 ± 0.029 |
| GGGTAAAGGA | 0.985 ± 0.028 |
| GGGTAACGGT | 0.9802 ± 0.0045 |
| GGGTAAGGGA | 0.961 ± 0.013 |
| GGGTAAGGGG | 1.05 ± 0.098 |
| GGGTAAGTAT | 0.958 ± 0.04 |
| GGGTAAGTGC | 1.047 ± 0.0017 |
| GGGTAATATG | 1.01 ± 0.049 |
| GGGTACCGAC | 1.08 ± 0.036 |

| Sequence | switch fluorescence ratio |
| --- | --- |
| GGGTACGCCG | 0.934 ± 0.025 |
| GGGTACGGAT | 1.04 ± 0.016 |
| GGGTACGGTA | 1.05 ± 0.029 |
| GGGTACGGTG | 1.07 ± 0.022 |
| GGGTACTTGG | 0.99 ± 0.026 |
| GGGTAGACTG | 0.955 ± 0.03 |
| GGGTAGCAGG | 1.04 ± 0.01 |
| GGGTAGCGCT | 0.969 ± 0.039 |
| GGGTAGGAGG | 0.982 ± 0.013 |
| GGGTATATGT | 1 ± 0.014 |
| GGGTATATTT | 1 ± 0.065 |
| GGGTATGAAG | 1.04 ± 0.049 |
| GGGTATGTAG | 0.986 ± 0.024 |
| GGGTATTGAG | 0.991 ± 0.012 |
| GGGTATTTTG | 0.997 ± 0.046 |
| GGGTCACTGG | 0.9765 ± 0.0056 |
| GGGTCAGGTG | 3.44 ± 0.48 |
| GGGTCAGTTT | 1.04 ± 0.054 |
| GGGTCCATGC | 1.01 ± 0.018 |
| GGGTCCATTC | 1.01 ± 0.02 |
| GGGTCGCGTG | 1.02 ± 0.033 |
| GGGTCTAAGG | 1.007 ± 0.0045 |
| GGGTCTAGGA | 1.006 ± 0.0052 |
| GGGTCTCGAG | 0.9866 ± 0.0096 |
| GGGTCTGGTG | 1.04 ± 0.057 |

| Sequence | switch fluorescence ratio |
| --- | --- |
| GGGTCTGGTT | 0.976 ± 0.033 |
| GGGTGAAAAG | 1.04 ± 0.033 |
| GGGTGAAGAA | 0.967 ± 0.019 |
| GGGTGAAGGC | 0.971 ± 0.058 |
| GGGTGAGCTG | 0.98 ± 0.04 |
| GGGTGAGGCG | 0.981 ± 0.038 |
| GGGTGAGGGT | 0.993 ± 0.015 |
| GGGTGAGGTT | 0.997 ± 0.021 |
| GGGTGAGTAG | 1.02 ± 0.067 |
| GGGTGATGGT | 0.964 ± 0.053 |
| GGGTGATTGA | 0.988 ± 0.021 |
| GGGTGCCGGT | 1.01 ± 0.024 |
| GGGTGCTGCT | 0.954 ± 0.033 |
| GGGTGGAATT | 1.005 ± 0.0092 |
| GGGTGGATGT | 1.01 ± 0.012 |
| GGGTGGCATT | 0.957 ± 0.0032 |
| GGGTGGCGTG | 0.981 ± 0.082 |
| GGGTGGGCCA | 0.969 ± 0.035 |
| GGGTGGGGCA | 1.01 ± 0.045 |
| GGGTGGGTGG | 0.989 ± 0.017 |
| GGGTGTAATC | 1.01 ± 0.024 |
| GGGTGTAGCC | 1.04 ± 0.037 |
| GGGTGTAGTT | 0.999 ± 0.036 |
| GGGTGTGAGG | 0.983 ± 0.025 |
| GGGTGTTCGT | 1.004 ± 0.0028 |
